Results taken from US20150037332A1, “TREATMENT OF METASTIC BREAST CANCER” (GENENTECH, INC., priority 2008, published 2015).

Legend:
[1] = Preliminary population PK analysis of Studies TOC2297g, TOC2689g and B016934; format: in vivo, human; conditions: 153 patients, 1458 concentration-timepoints
[2] = Phase II study with gemcitabine in platinum-resistant ovarian cancer (TOC3258g), PK; format: in vivo, human
[3] = Phase Ib combination studies with capecitabine (BO17003) and docetaxel (BO17021), PK; format: in vivo, human
Excerpt: In both studies, the PK parameters for pertuzumab were similar to the PK parameters obtained in single-agent pertuzumab studies.

[4] = Phase II single-agent Study TOC2689g (ovarian cancer), serum pharmacokinetics; format: in vivo, human; conditions: for CL, systemic clearance (mean ± SD) / Vc, volume of central compartment (mean ± SD) / Vss, steady-state volume of distribution (mean ± SD) / t1/2 initial, initial distribution half-life (mean ± SD) / t1/2 terminal, terminal half-life (mean ± SD): intravenous infusion, 2-compartment population PK model
Excerpt: (§1) Mean serum Cmin and Cmax for the first two cycles of treatment in ovarian and metastatic breast cancer (MBC) patients are presented in Table 3.
(§2) PK parameters were estimated using a two-compartment model (see Table 4).

[5] = cited from earlier work
[6] = Multi-dose intravenous toxicity and toxicokinetic studies (Studies 00-377-1821 and 01-458-1821), cardiac endpoints; format: in vivo; conditions: 7-week and 26-week intravenous studies, cynomolgus monkeys
Protocol: In a 7-week intravenous toxicity and toxicokinetic study in cynomolgus monkeys with a 4-week recovery period (Study 00-377-1821), telemetry was measured in two animals per sex in the control and high-dose (150 mg/kg/dose) groups to collect electrocardiographic endpoints. At two timepoints before the initiation of treatment, and on Days 1 and 28, telemetered animals had systolic, diastolic, and mean arterial blood pressure, heart rate, PR interval, QRS, QT, and Lead II ECG data recorded. Four 1-minute tracings were collected for each animal from 2 to 22 hours after dosing and interpreted by a board-certified veterinary cardiologist. In addition to the routine serum chemistry parameters evaluated, serum was also analyzed for creatinine kinase isozymes and Troponin T on Study Days 2/3 and 44/45 for all animals. […] Recordings were taken at two timepoints before the initiation of treatment and once during Weeks 4, 16, and 26 on anesthetized animals and were interpreted by a board-certified veterinary cardiologist. In addition to the routine serum chemistry parameters evaluated, serum was also analyzed for Troponin T on Day 1 predose and on Days 114, 184, and 239 (recovery) for all animals.

[7] = system: incurable, locally advanced, recurrent or metastatic solid tumors; conditions: cited from earlier work
[8] = Clinical trials as of November 2006, torsades de pointes; format: in vivo, human; conditions: pertuzumab-treated patients
[9] = Phase II single-agent Study BO16934 (metastatic breast cancer), serum pharmacokinetics; format: in vivo, human; conditions: for CL, systemic clearance (mean ± SD) / Vc, volume of central compartment (mean ± SD) / Vss, steady-state volume of distribution (mean ± SD) / t1/2 initial, initial distribution half-life (mean ± SD) / t1/2 terminal, terminal half-life (mean ± SD): intravenous infusion, 2-compartment population PK model
Excerpt: as §1, §2

[10] = Phase II single-agent studies TOC2689g and BO16934 taken together, serum pharmacokinetics; format: in vivo, human
Excerpt: (§3) Population PK modeling of data from Phase Ia and Phase II studies support the continued use of fixed, non-weight-based dosing in female patients.
as §1, §2

[11] = system: non-small cell lung cancer (NSCLC) and breast cancer tumors (low and high HER2 expression levels); experiment: Nonclinical dose-response xenograft studies; format: in vivo; conditions: nude mice, NSCLC and breast cancer xenografts
[12] = Previous pertuzumab studies, PK summary (two-compartment model); format: in vivo, human
Excerpt: as §3

[13] = system: previously treated HER2-positive metastatic breast cancer; conditions: in combination with trastuzumab; 11 patients enrolled; cited from earlier work
[14] = Phase I, intravenously every 3 weeks
[15] = two-compartment model, Studies TOC2689g and BO16934
[16] = two-compartment model, typical patient

## pertuzumab: antibody comprising the light and heavy chain amino acid sequences in SEQ ID NOs. 7 and 8; HER dimerization inhibitor binding HER2
[1]
  population variability of steady-state trough concentration and exposure with fixed-dosing, body surface area-based dosing, and weight-based dosing: similar
[2]; in combination with gemcitabine
  serum concentrations of pertuzumab compared with single-agent Phase II studies: similar
[2]; preliminary PK analysis
  effect on the PK of gemcitabine or its major metabolite, dFdU: does not alter the PK
[3]; Phase Ib Studies BO17003 (capecitabine) and BO17021 (docetaxel)
  effect on the PK of capecitabine and docetaxel: does not alter the PK
[3]; in combination with capecitabine or docetaxel
  PK parameters for pertuzumab compared with single-agent pertuzumab studies: similar
[4]; 420 mg (n = 61), Cycle 1
  Cmax, mean peak serum concentration: 231.7 µg/mL
  Cmin, mean (±SD) trough serum concentration: 64.6 (±20.9) μg/mL
[4]; 420 mg (n = 61), Cycle 2
  Cmax, mean peak serum concentration: 237.6 µg/mL
  Cmin, mean (±SD) trough serum concentration: 66.5 (±38.0) μg/mL
[4]; 420 mg (n = 61)
  CL, systemic clearance (mean ± SD): 0.244 ± 0.095 L/day
  Vc, volume of central compartment (mean ± SD): 2.70 ± 0.39 L
  Vss, steady-state volume of distribution (mean ± SD): 4.73 ± 0.78 L
  t1/2 initial, initial distribution half-life (mean ± SD): 32.9 ± 2.88 h
  t1/2 terminal, terminal half-life (mean ± SD): 389 ± 113 h
[4]; 1050 mg (n = 62), Cycle 1
  Cmax, mean peak serum concentration: 390.9 µg/mL
  Cmin, mean (±SD) trough serum concentration: 90.1 (±68.1) μg/mL
[4]; 1050 mg (n = 62), Cycle 2
  Cmax, mean peak serum concentration: 357.2 µg/mL
  Cmin, mean (±SD) trough serum concentration: 94.7 (±47.3) μg/mL
[4]; 1050 mg (n = 62)
  CL, systemic clearance (mean ± SD): 0.285 ± 0.119 L/day
  Vc, volume of central compartment (mean ± SD): 3.11 ± 0.72 L
  Vss, steady-state volume of distribution (mean ± SD): 5.39 ± 1.31 L
  t1/2 initial, initial distribution half-life (mean ± SD): 32.2 ± 2.64 h
  t1/2 terminal, terminal half-life (mean ± SD): 379 ± 125 h
[5]; Phase I patients
  antibodies to pertuzumab: not detected
[5]; doses of 2.0-15 mg/kg
  linearity of pharmacokinetics: linear
[6]
  ECGs, blood pressures, and heart rates: normal
  cardiac injury caused by treatment, by histopathology: no evidence of cardiac injury
  serum chemistry parameters (Troponin T and creatine kinase isozymes): lack of increases
[7]; [14]
  confirmed partial responses: Two
  tumor regression, patients evaluable for response: 3 of 20
[7]; given intravenously every 3 weeks
  tolerability: generally well tolerated
[8]
  association with an increase of TdP: no association noted
[9]; 420 mg (n = 40), Cycle 1
  Cmax, mean peak serum concentration: 202.9 µg/mL
  Cmin, mean (±SD) trough serum concentration: 56.5 (±21.2) μg/mL
[9]; 420 mg (n = 40), Cycle 2
  Cmax, mean peak serum concentration: 181.2 µg/mL
  Cmin, mean (±SD) trough serum concentration: 62.6 (±21.1) μg/mL
[9]; 420 mg (n = 40)
  CL, systemic clearance (mean ± SD): 0.255 ± 0.096 L/day
  Vc, volume of central compartment (mean ± SD): 2.98 ± 0.67 L
  Vss, steady-state volume of distribution (mean ± SD): 5.12 ± 0.98 L
  t1/2 initial, initial distribution half-life (mean ± SD): 32.6 ± 3.12 h
  t1/2 terminal, terminal half-life (mean ± SD): 391 ± 84 h
[9]; 1050 mg (n = 35), Cycle 1
  Cmax, mean peak serum concentration: 425.6 µg/mL
  Cmin, mean (±SD) trough serum concentration: 75.9 (±34.5) μg/mL
[9]; 1050 mg (n = 35), Cycle 2
  Cmax, mean peak serum concentration: 542.9 µg/mL
  Cmin, mean (±SD) trough serum concentration: 136.6 (±53.5) μg/mL
[9]; 1050 mg (n = 35)
  CL, systemic clearance (mean ± SD): 0.225 ± 0.121 L/day
  Vc, volume of central compartment (mean ± SD): 2.95 ± 0.81 L
  Vss, steady-state volume of distribution (mean ± SD): 5.11 ± 1.12 L
  t1/2 initial, initial distribution half-life (mean ± SD): 33.4 ± 3.6 h
  t1/2 terminal, terminal half-life (mean ± SD): 492 ± 194 h
[10]; 840 mg loading dose, 420 mg maintenance dose every 3 weeks, by the second treatment cycle
  steady-state serum Cmin: approximately 60 mg/mL
[10]; loading dose 840 mg followed by 420 mg every 3 weeks
  attainment of steady-state Cmin and Cmax: by the second cycle
[10]; [15]
  mean systemic clearance, range over dose groups: 0.225 to 0.285 L/day
  mean volume of distribution of the central compartment, range over dose groups: 2.70 to 3.11 L
[11]
  steady-state trough concentrations at which >80% suppression of tumor growth was achieved: 5 to 25 µg/mL
[11]; steady-state trough concentrations 5-25 μg/mL
  suppression of tumor growth: > 80%
[12]; docetaxel and capecitabine in Phase Ib studies, gemcitabine in a Phase II study
  impact on the PK of co-administered chemotherapeutic agents: no evidence that pertuzumab impacted the PK
[12]; doses from 2.0 to 15.0 mg/kg
  change in clearance with dose: no change in clearance
[12]; [16]
  systemic serum clearance: approximately 0.24 L/day
  terminal half-life: approximately 17 days
[13]
  partial response (PR): Two out of the 11
